Source: article PMC2149339
Where “and” joins values, the source holds several entries; their conditions need not be identical. Equal entries are not always repeated.

Key:
[1] = molecular target: COOH-terminal region of utrophin construct (TDRII) (UniProt P46939); assay: co-IP
[2] = molecular target: COOH-terminal region of dystrophin construct (C2979) (UniProt P11532); assay: co-IP
Sequence of UniProt P11532 (P11532 2980-3685): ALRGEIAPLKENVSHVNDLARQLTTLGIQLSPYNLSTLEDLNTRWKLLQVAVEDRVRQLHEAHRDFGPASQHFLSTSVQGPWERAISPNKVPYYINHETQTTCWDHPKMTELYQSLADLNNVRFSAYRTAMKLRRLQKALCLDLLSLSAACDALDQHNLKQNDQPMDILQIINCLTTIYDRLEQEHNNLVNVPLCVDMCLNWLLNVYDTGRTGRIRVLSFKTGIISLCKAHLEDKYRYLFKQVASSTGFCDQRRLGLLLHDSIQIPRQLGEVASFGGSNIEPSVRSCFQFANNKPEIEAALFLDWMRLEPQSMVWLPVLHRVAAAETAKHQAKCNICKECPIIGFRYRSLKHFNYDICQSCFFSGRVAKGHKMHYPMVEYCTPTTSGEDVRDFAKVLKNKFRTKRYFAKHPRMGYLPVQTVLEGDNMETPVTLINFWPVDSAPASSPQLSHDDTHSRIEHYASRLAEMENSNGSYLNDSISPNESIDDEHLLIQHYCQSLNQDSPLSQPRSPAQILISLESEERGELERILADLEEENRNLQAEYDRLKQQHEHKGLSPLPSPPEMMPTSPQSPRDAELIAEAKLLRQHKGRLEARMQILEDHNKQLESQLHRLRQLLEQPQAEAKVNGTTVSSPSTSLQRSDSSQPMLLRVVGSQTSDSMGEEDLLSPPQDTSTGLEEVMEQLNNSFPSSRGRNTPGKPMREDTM

Sequence of UniProt P46939 (P46939 2753-3432): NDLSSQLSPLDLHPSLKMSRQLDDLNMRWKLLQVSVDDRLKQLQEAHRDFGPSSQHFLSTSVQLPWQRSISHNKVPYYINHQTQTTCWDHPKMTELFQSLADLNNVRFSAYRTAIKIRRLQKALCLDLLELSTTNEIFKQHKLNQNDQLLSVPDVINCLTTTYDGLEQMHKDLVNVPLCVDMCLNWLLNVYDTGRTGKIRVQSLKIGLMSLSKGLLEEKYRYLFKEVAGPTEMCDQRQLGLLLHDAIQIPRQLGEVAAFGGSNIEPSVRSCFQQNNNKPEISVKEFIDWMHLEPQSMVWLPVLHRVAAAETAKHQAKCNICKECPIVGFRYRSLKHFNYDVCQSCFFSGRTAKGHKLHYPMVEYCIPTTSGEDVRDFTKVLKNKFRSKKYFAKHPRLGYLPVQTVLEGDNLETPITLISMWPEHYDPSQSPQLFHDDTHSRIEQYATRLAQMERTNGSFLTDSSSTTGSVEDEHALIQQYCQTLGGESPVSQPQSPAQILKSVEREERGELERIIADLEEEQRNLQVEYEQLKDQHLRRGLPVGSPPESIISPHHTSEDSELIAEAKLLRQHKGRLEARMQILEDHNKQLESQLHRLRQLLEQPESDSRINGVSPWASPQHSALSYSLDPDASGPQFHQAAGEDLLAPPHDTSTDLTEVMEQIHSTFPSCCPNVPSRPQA

fold (+Ab over control without antibody) [1] | fold (+Ab over control without antibody), average of five experiments [1] [fold] | fold (+Ab over control without antibody), average of five experiments [2] [fold] | fold (+Ab over control without antibody) [2] | Substance
3.1 fold and 4 fold and 3 fold | 3.3 | 3 |  | full-length α-dystrobrevin-1 construct (exons 1-21) (natural protein)
1.3 fold and 0.9 fold and 1 fold | 1 |  | 3.7 fold and 4.2 fold and 3.3 fold | α-dystrobrevin-2 construct (exons 1-17B) (natural protein)
